# Measured values: article PMC12416549 (2024)
# Changes are numbered by the printed parent chain. Numbers in names are those of the source.
# T1: TNFR1 (Homo sapiens, UniProt P19438)
# T1 chain: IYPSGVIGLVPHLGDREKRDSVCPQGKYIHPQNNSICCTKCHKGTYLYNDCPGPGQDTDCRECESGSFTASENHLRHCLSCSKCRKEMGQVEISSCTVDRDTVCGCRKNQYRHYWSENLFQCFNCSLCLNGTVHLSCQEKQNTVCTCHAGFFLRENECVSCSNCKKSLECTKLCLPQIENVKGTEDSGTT
# B1: T57W (designed binder)
# chain: SMEEEVEKAAKEYEKKKKEAIEKHLEKLKAKDKEAAERFLKELEEAAKEYAKDEAKWMSEEEAKRRAKKYKEKVLLSELSEEEQKEIKEAEEKLVRTILKYVEEAAK
# B2: V95A (designed binder)
# chain: B1 chain with W57T, V95A
# B3: A36Q (designed binder)
# chain: B1 chain with A36Q, W57T
# B4: A90M (designed binder)
# chain: B1 chain with W57T, A90M
# B5: E91D (designed binder)
# chain: B1 chain with W57T, E91D
# B6: I98Q (designed binder)
# chain: B1 chain with W57T, I98Q
# B7: L40G (designed binder)
# chain: B1 chain with L40G, W57T
# B8: D32P (designed binder)
# chain: B1 chain with D32P, W57T
# B9: T97H (designed binder)
# chain: B1 chain with W57T, T97H
# B10: R66L (designed binder)
# chain: B1 chain with W57T, R66L
# B11: K73R (designed binder)
# chain: B1 chain with W57T, K73R
# B12: Y70V (designed binder)
# chain: B1 chain with W57T, Y70V
# B13: R38T (designed binder)
# chain: B1 chain with R38T, W57T
# B14: E103Q (designed binder)
# chain: B1 chain with W57T, E103Q
# B15: E44R (designed binder)
# chain: B1 chain with E44R, W57T
# B16: A90E (designed binder)
# chain: B1 chain with W57T, A90E
# B17: L43T (designed binder)
# chain: B1 chain with L43T, W57T
# B18: E91T (designed binder)
# chain: B1 chain with W57T, E91T
# B19: M2E (designed binder)
# chain: B1 chain with M2E, W57T
# B20: E54V (designed binder)
# chain: B1 chain with E54V, W57T
# B21: A106V (designed binder)
# chain: B1 chain with W57T, A106V
# B22: E12R (designed binder)
# chain: B1 chain with E12R, W57T
# B23: E19Q (designed binder)
# chain: B1 chain with E19Q, W57T
# B24: K11R (designed binder)
# chain: B1 chain with K11R, W57T
# B25: K17R (designed binder)
# chain: B1 chain with K17R, W57T
# B26: Y101C (designed binder)
# chain: B1 chain with W57T, Y101C
# B27: K11E (designed binder)
# chain: B1 chain with K11E, W57T
# B28: E72F (designed binder)
# chain: B1 chain with W57T, E72F
# B29: A105W (designed binder)
# chain: B1 chain with W57T, A105W
# B30: L40H (designed binder)
# chain: B1 chain with L40H, W57T
# B31: K41D (designed binder)
# chain: B1 chain with K41D, W57T
# B32: A35H (designed binder)
# chain: B1 chain with A35H, W57T
# B33: K18T (designed binder)
# chain: B1 chain with K18T, W57T
# B34: L99G (designed binder)
# chain: B1 chain with W57T, L99G
# B35: E45N (designed binder)
# chain: B1 chain with E45N, W57T
# B36: E62V (designed binder)
# chain: B1 chain with W57T, E62V
# B37: E12A (designed binder)
# chain: B1 chain with E12A, W57T
# B38: E22F (designed binder)
# chain: B1 chain with E22F, W57T
# B39: E60H (designed binder)
# chain: B1 chain with W57T, E60H
# B40: L75F (designed binder)
# chain: B1 chain with W57T, L75F
# B41: Q84M (designed binder)
# chain: B1 chain with W57T, Q84M
# B42: I98D (designed binder)
# chain: B1 chain with W57T, I98D
# B43: Y13V (designed binder)
# chain: B1 chain with Y13V, W57T
# B44: A105S (designed binder)
# chain: B1 chain with W57T, A105S
# B45: A36C (designed binder)
# chain: B1 chain with A36C, W57T
# B46: S59H (designed binder)
# chain: B1 chain with W57T, S59H
# B47: A46Q (designed binder)
# chain: B1 chain with A46Q, W57T
# B48: I87W (designed binder)
# chain: B1 chain with W57T, I87W
# B49: K16L (designed binder)
# chain: B1 chain with K16L, W57T
# B50: E91L (designed binder)
# chain: B1 chain with W57T, E91L
# B51: A9S (designed binder)
# chain: B1 chain with A9S, W57T
# B52: E82G (designed binder)
# chain: B1 chain with W57T, E82G
# B53: E60P (designed binder)
# chain: B1 chain with W57T, E60P
# B54: E81A (designed binder)
# chain: B1 chain with W57T, E81A
# B55: K48G (designed binder)
# chain: B1 chain with K48G, W57T
# Molecular target: T1, TNFR1
# Test: yeast display SC50
row,Binder,apparent Kd (screen) [pM]
1,B1,304
2,B2,6430
3,B3,653
4,B4,446
5,B5,446
6,B6,49.8
7,B7,446
8,B8,8560
9,B9,653
10,B10,18300
11,B11,9410
12,B12,22200
13,B13,2050
14,B14,490
15,B15,593
16,B16,490
17,B17,490
18,B18,7070
19,B19,956
20,B20,20200
21,B21,2730
22,B22,539
23,B23,490
24,B24,593
25,B25,653
26,B26,446
27,B27,446
28,B28,446

row,Binder,apparent Kd (screen) [pM]
1,B29,13800
2,B30,490
3,B31,539
4,B32,1050
5,B33,1160
6,B34,5310
7,B35,2480
8,B36,2730
9,B37,446
10,B38,593
11,B39,593
12,B40,869
13,B41,5840
14,B42,1860
15,B43,8560
16,B44,956
17,B45,790
18,B46,593
19,B47,539
20,B48,12500
21,B49,446
22,B50,13800
23,B51,490
24,B52,446
25,B53,2050
26,B54,718
27,B55,490
